From publication PMC4191397

Columns and labels:
[1] = target: T1, NS3h (NS3 helicase domain) (Dengue virus serotype 2 (infectious …, UniProt O09234 1646-2093)); assay: EMSA
[2] = target: T1, NS3h (NS3 helicase domain); assay: competition
[3] = target: T1, NS3h (NS3 helicase domain); assay: fluorescence titration
[4] = target: T1, NS3h (NS3 helicase domain); assay: competition; remark: listed apart in the source
[5] = target: T1, NS3h (NS3 helicase domain); assay: competition; remark: listed apart in the source
[6] = target: T1, NS3h (NS3 helicase domain); assay: competition; remark: listed apart in the source

AGTTGAGTTGAGTTGAGTTG (ssDNA) [F-p-D20]
binding result [1]: no binding

AGUUGAGUUG (ssRNA) [R10]
Ka [2]: 1.69 ± 0.04 10^6 M-1

AGUUGAGUUGAG (ssRNA) [F-p-R12]
Ka [3]: 20.8 ± 0.5 10^6 M-1

AGUUGAGUUGAGUUGAGUUG (ssRNA) [R20]
Ka [4]: 16.7 ± 0.7 10^6 M-1 | Ka [5]: 0.6 ± 0.1 10^6 M-1

AGUUGAGUUG (ssRNA) [F-p-R10]
Ka [3]: 11.3 ± 0.1 10^6 M-1

AGUUGAGUUGAGUUGAGU (ssRNA) [R18]
Ka [2]: 11.5 ± 0.3 10^6 M-1

UUUUUUUUUUUU (ssRNA) [(U)12]
binding result [6]: no binding

AGUUGAGUUGAGUUG (ssRNA) [R15]
Ka [2]: 7.4 ± 0.2 10^6 M-1

AGUUGAGUUGAG (ssRNA) [R12]
Ka [2]: 2.64 ± 0.06 10^6 M-1
